Results reported in patent publication US6001823A, “Treatment or prophylaxis of diseases caused by pilus-forming bacteria” (priority 1995, dated 1999).

Assays:
PapD-PapG complex = target: T1, PapD-PapG complex (Escherichia coli, UniProt P15319); experiment: Reconstitution assay: restoration of PapD-PapG complex from reduced, denatured PapG; assay type: biochemical, E. coli; settings: PapD incubated with increasing amounts of peptide
T1 construct: made in house
T1 sequence (P15319 22-239): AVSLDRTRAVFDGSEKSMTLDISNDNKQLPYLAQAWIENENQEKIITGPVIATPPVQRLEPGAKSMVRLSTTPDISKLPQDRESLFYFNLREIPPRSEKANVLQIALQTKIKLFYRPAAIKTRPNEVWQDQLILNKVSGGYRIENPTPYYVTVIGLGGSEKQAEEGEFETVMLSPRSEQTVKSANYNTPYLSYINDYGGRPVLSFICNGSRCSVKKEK
Description: B: PapD incubated with the G1'-19'WT, G1'-16'WT, K1'-19'WT, and G2'-21'amide was added to reduced, denatured PapD-PapG and the amount of PapD-PapG complex restored in each sample was quantitated as described in example 2. The % inhibition represents the amount of the PapD-PapG complex restored with peptide-treated PapD compared to the amount of PapD-PapG complex restored with untreated PapD. The graph represent the average of 4 experiments. PapD and PapD-PapG complex were prepared as described in F. Lindberg et al, J. Bacteriol. 171, 6052 (1989) and S. J. Hultgren et al., Proc. Natl. Acad. Sci. U.S.A. 86, 4357 (1989).
FIG. 7: Ability of PapD Arg-8, Lys-112 and Thr-7 mutants to bind PapG and restore the PapD-PapG complex in vitro. 0.4 μg of PapD-PapG complex was reduced and denatured as described in FIG. 2B. The denatured PapD-PapG complex was then diluted with 0-630 ng purified wild type (WT) or mutant PapD. The amount of PapD-PapG restored in the samples was determined as in FIG. 2B and was graphed as a percentage of the greatest amount of PapD-PapG restored. The values graphed represent the average of 3 experiments. Wild type and mutant PapD and the PapD-PapG complex were purified as described in F. Lindberg et al, J. Bacteriol. 171, 6052 (1989) and S. J. Hultgren et al., Proc. Natl. Acad. Sci. U.S.A. 86, 4357 (1989).
As described in Kuehn et al., Proc. Natl. Acad. Sci. U.S.A. 88, 10586 (1991), native PapD is able to bind to reduced, denatured PapG and restore the PapD-PapG complex in vitro. This reconstitution assay was used to determine the ability of the peptides to inhibit PapD activity in vitro.
The PapD-peptide solution was then added to the reduced, denatured PapD-PapG, incubated at 25° C. for 10 min, and applied to an IEF 3-9 gel (Pharmacia). The amount of PapD-PapG restored in each sample was quantitated by densitometry of the silver stained IEF band corresponding to the pI of the DG complex.

PapD = target: T2, PapD (Escherichia coli, UniProt P15319); experiment: ELISA: PapD binding to peptides coated on microtiter wells; parameters: made in house; species or system E. coli; settings: peptide coated on microtiter wells, ELISA
T2 sequence (P15319 22-239): T1 sequence (P15319 22-239)
Description: The residues in the peptides were numbered starting with the carboxyl terminal residue as 1, and ending with the amino terminal residue. Peptides were also synthesized which deviated in length (G1'-16'WT, G1'-11'WT, G1'-7'WT) or sequence (G2'-21'amide, G1'-19'SV, G1'-19'NH2) from the wild type PapG carboxyl terminal sequence. Using an enzyme-linked immunosorbent assay (ELISA), we tested the ability of PapD to bind to each peptide coated on wells of microtiter plates:
5 mg/ml stock solutions of peptides in water or 50% acetic acid were diluted to a concentration of 2.5 pmol/50 μl in PBS. 50 μl of the peptide solution was coated overnight onto microtiter wells (Nunc-Immuno Plate Maxisorp) at 4° C. The solutions in the plates were discarded, and the wells were blocked with 200 μl 3% bovine serum albumin (BSA, Sigma) in PBS (120 mM NaCl/2.7 mM KCl/10 mM phosphate buffer salts, pH 7.4) for 2 hours at 25° C. The plates were washed vigorously 3 times with PBS and incubated with 50 μl of the indicated amount of purified PapD (Lindberg et al, 1989). After 3 washes with PBS, the wells were incubated with a 1:500 dilution of anti-PapD rabbit antiserum (Lindberg et al, 1989) in 3% BSA/PBS for 45 min. at 25° C. After 3 washes with PBS, the wells were incubated with a 1:1000 dilution of goat anti-rabbit IgG coupled to alkaline phosphatase (Sigma) in 3% BSA/PBS for 45 min. at 25° C. Following 3 washes with PBS and 3 washes with developing buffer (10 mM diethanolamine pH 9.5, 0,5 mM MgCl2), 50 μl filtered p-nitrophenyl phosphate substrate (Sigma) in developing buffer (10 mg/ml) was added. The absorbance at 405 nm was read after 60 min of incubation in the dark at 25° C.

“NH2--KPGELSGSMTMVLSFP--COOH (H-KPGELSGSMTMVLSFP-OH) [G1'-16'WT]” was tested, and the “inhibition of restoration of the PapD-PapG complex by PapD” value (PapD-PapG complex) was “inhibit restoration” and the “binding of PapD to immobilized peptide” value (PapD) was “binds”.
